Reference: the Immune Epitope Database (IEDB)
Values belong to the sequence of their own block, whether it stands above or below them.

Tests used:
HLA-B*07:02 = test: IEDB peptide-MHC binding, purified MHC/direct/fluorescence; filed as Kd, often an IC50 or EC50 that approximates it; ≥ and ≤ were set here for values at or beyond the usual limits of such assays
HLA-A*01:01 [1] = test: as above
HLA-A*02:01 [2] = test: IEDB peptide-MHC binding, purified MHC/competitive/fluorescence; ≥ and ≤ were set here for values at or beyond the usual limits of such assays
HLA-A*24:02 = test: IEDB peptide-MHC binding, purified MHC/competitive/radioactivity; filed as Kd, often an IC50 or EC50 that approximates it; ≥ and ≤ were set here for values at or beyond the usual limits of such assays
HLA-A*26:01 = test: as above
HLA-A*01:01 [3] = test: as above
HLA-A*30:02 = test: as above
HLA-B*51:01 = test: as above
HLA-B*58:01 = test: IEDB peptide-MHC binding, purified MHC/direct/fluorescence; filed as Kd, often an IC50 or EC50 that approximates it; ≥ and ≤ were set here for values at or beyond the usual limits of such assays
HLA-A*11:01 = test: as above; conditions: source organism: SARS-CoV1
HLA-B*27:05 = test: as above
HLA-B*15:01 [4] = test: IEDB peptide-MHC binding, purified MHC/competitive/radioactivity; filed as Kd, often an IC50 or EC50 that approximates it; ≥ and ≤ were set here for values at or beyond the usual limits of such assays
HLA-B*46:01 = test: IEDB peptide-MHC binding, purified MHC/direct/fluorescence; filed as Kd, often an IC50 or EC50 that approximates it; ≥ and ≤ were set here for values at or beyond the usual limits of such assays; conditions: source organism: Yellow fever virus
HLA-B*53:01 = test: IEDB peptide-MHC binding, purified MHC/competitive/radioactivity; filed as Kd, often an IC50 or EC50 that approximates it; ≥ and ≤ were set here for values at or beyond the usual limits of such assays
HLA-A*69:01 = test: IEDB peptide-MHC binding, purified MHC/direct/fluorescence; filed as Kd, often an IC50 or EC50 that approximates it; ≥ and ≤ were set here for values at or beyond the usual limits of such assays
HLA-A*02:01 [5] = test: as above
HLA-B*15:01 [6] = test: as above
[7] = source organism: Sudan ebolavirus
[8] = source organism: Dengue virus 1 Brazil/97-11/1997
[9] = source organism: Mammarenavirus brazilense
[10] = source organism: Dengue virus 2 Jamaica/1409/1983
[11] = source organism: Dengue virus 3 Martinique/1243/1999
[12] = source organism: Vaccinia virus WR
[13] = source organism: Zaire ebolavirus
[14] = source organism: Dengue virus 4 Dominica/814669/1981
[15] = source organism: Mycobacterium tuberculosis
[16] = source organism: Human betaherpesvirus 6B
[17] = source organism: Bacillus anthracis
[18] = source organism: Haemophilus influenzae
[19] = source organism: Dengue virus 4 Philippines/H241/1956
[20] = source organism: Entamoeba histolytica

Kd (HLA-B*07:02; source organism: Homo sapiens): 145 nM
Sequence: APRTLVLLL

Sequence: ASLLRRWPK
Kd (HLA-A*01:01 [1]; source organism: Vibrio cholerae): ≥ 20000 nM

Sequence: ASTVIYRGV
IC50 (HLA-A*02:01 [2]; [7]): 7440 nM

Sequence: DFPGKTVWF
Kd (HLA-A*24:02; [8]): 8800 nM

Sequence: DPKRYFVPIF
Kd (HLA-A*26:01; [9]): ≥ 69700 nM
Kd (HLA-A*01:01 [3]; [9]): ≥ 70400 nM

Sequence: EKSAAIDGEY
Kd (HLA-A*26:01; [8]): 2040 nM
Kd (HLA-A*01:01 [3]; [8]): 2420 nM
Kd (HLA-A*30:02; [8]): 49.3 nM

Sequence: ELCEDTITY
Kd (HLA-A*26:01; [10]): 754 nM

Sequence: EPPFGESNI
Kd (HLA-B*51:01; [11]): 11200 nM

Sequence: ERSDKSYEH
Kd (HLA-B*58:01; source organism: SARS-CoV1): 1840 nM
Kd (HLA-A*11:01): 16800 nM
Kd (HLA-B*27:05; source organism: SARS-CoV1): 8450 nM

Sequence: ETLLLLGLMI
Kd (HLA-A*26:01; [11]): ≥ 54400 nM

Sequence: FDFCEGTTVV
Kd (HLA-B*51:01; [10]): 2650 nM

Sequence: FILTAILFF
Kd (HLA-B*15:01 [4]; [12]): 181 nM

Sequence: FMAILQHHQ
IC50 (HLA-A*02:01 [2]; [13]): 1080 nM

Sequence: FTPEARNSTF
Kd (HLA-A*26:01; [14]): 518 nM
Kd (HLA-A*24:02; [14]): 4150 nM

Sequence: GGFSTLDKI
IC50 (HLA-A*02:01 [2]; source organism: Variola virus): ≥ 124000 nM

Sequence: GMMGGLWKY
Kd (HLA-B*46:01): ≥ 20000 nM

Sequence: GPRTRGYAI
Kd (HLA-B*07:02; [15]): 9 nM

Sequence: GRSCTEETF
Kd (HLA-B*27:05; source organism: Mammarenavirus juninense): ≥ 20000 nM

Sequence: GTGPCAGDF
IC50 (HLA-A*02:01 [2]; [13]): ≥ 512000 nM

Sequence: IANELNYILW
Kd (HLA-B*53:01; [11]): 79.9 nM

Sequence: ICDDVLSKY
Kd (HLA-A*69:01; [16]): 2690 nM
Kd (HLA-A*01:01 [1]; [16]): 3180 nM

Sequence: ILNGGLGNA
Kd (HLA-A*69:01; [17]): ≥ 20000 nM
Kd (HLA-A*02:01 [5]; [17]): 317 nM

Kd (HLA-B*58:01; [18]): 92.8 nM
Kd (HLA-B*15:01 [6]; [18]): 119 nM
Kd (HLA-A*02:01 [5]; [18]): 10200 nM
Sequence: ILYDTGSSW

Sequence: IMILKLLTDF
Kd (HLA-B*15:01 [4]; source organism: Dengue virus 1 Singapore/S275/1990): 12.4 nM

Sequence: IPHDLMEFI
Kd (HLA-B*53:01; [19]): 6.39 nM
Kd (HLA-B*51:01; [19]): 20.4 nM

Sequence: ISKIPGGNMY
Kd (HLA-B*15:01 [4]; [8]): 137 nM
Kd (HLA-A*01:01 [3]; [8]): ≥ 27800 nM
Kd (HLA-A*30:02; [8]): 15.4 nM

Sequence: ISTIGIRPS
IC50 (HLA-A*02:01 [2]; [7]): ≥ 116000 nM

Sequence: IVFATAARY
Kd (HLA-B*15:01 [6]; [15]): 161 nM

Sequence: IWLKLRDSY
Kd (HLA-A*30:02; [8]): 673 nM

Sequence: KIMASENSS
IC50 (HLA-A*02:01 [2]; [13]): ≥ 119000 nM

Sequence: KQLESVMYL
Kd (HLA-A*69:01; [20]): ≥ 20000 nM
Kd (HLA-A*02:01 [5]; [20]): 4.8 nM

Sequence: KQPATLRKY
Kd (HLA-A*30:02; [10]): 416 nM

Sequence: KQTGSASSM
Kd (HLA-B*15:01 [4]; [10]): 10.8 nM

Sequence: KSKKYEGPF
Kd (HLA-B*15:01 [4]; [12]): 1.86 nM

Sequence: KTSQVPKLL
IC50 (HLA-A*02:01 [2]; source organism: Variola virus): 23500 nM

Sequence: KVVQPENLEY
Kd (HLA-B*15:01 [4]; source organism: Dengue virus 2 16681-PDK53): 30 nM

Sequence: LAESVKMHM
Kd (HLA-B*15:01 [4]; [12]): 963 nM

Sequence: LAKKTLAPF
Kd (HLA-B*15:01 [4]; [12]): 2.13 nM

Sequence: LAMGCYSQV
Kd (HLA-B*51:01; [19]): 140 nM

Sequence: LANTNFFVF
Kd (HLA-B*15:01 [4]; [12]): 17 nM

Sequence: LHPASAWTLY
Kd (HLA-A*30:02; [8]): 53.7 nM

Sequence: LLSSTRVPNY
Kd (HLA-A*01:01 [3]; [19]): 2260 nM
Kd (HLA-A*30:02; [19]): 2170 nM

Sequence: LPETLETLL
Kd (HLA-B*53:01; [10]): 918 nM

Sequence: LPVWLAHKV
Kd (HLA-B*53:01; [11]): 831 nM
Kd (HLA-B*51:01; [11]): 126 nM
